Data: patent US8343490B2, “Monoclonal antibody SC104 and derivative thereof specifically binding to a sialyltetraosyl carbohydrate as a potential anti-tumor therapeutic agent” (Cephalon Australia Pty Ltd, priority 2004, dated 2013)

Key:
C170 cells [1] = experiment: C170 cell ELISA (hybridoma screening); type: binding
Protocol: (§1) ELISA. Antibody responses in the serum of immunised mice were assayed by titration using a standard non-competitive ELISA procedure. 96-well tissue culture plates were coated with C170 cells at a cell density of 5×10^5 cells/ml (100 μl/well) in 10% foetal bovine serum in RPMI 1640. The plates were incubated overnight at 37° C., 5% CO2, 95% air. The cells were then washed twice in phosphate buffered saline (pH7.3, PBS) prior to being fixed with 0.5% glutaraldehyde in PBS (10 min, 25° C., 100 μl/well). Remaining non-specific binding sites were blocked by incubation for 1 hr with 1% bovine serum albumin (fraction V from Sigma Chemicals Ltd.) in PBS. The cells were washed three times with a washing solution consisting of 0.05% Tween 20 in phosphate buffered saline before assaying post-boost serum for binding to C170 cells using a non-competitive sandwich ELISA. The pre-immunisation serum was used as a negative control. • Immunohistochemistry. Binding of hybridoma supernatants to tumour tissues was determined by indirect immunoperoxidase staining of frozen colorectal tumour sections. […] The bound antibody was detected with rabbit anti-mouse Ig conjugated to peroxidase (Dako Ltd., Bucks., UK) and following extensive washing the slides were stained with 0.05% diaminobenzidine and 0.01% H2O2 in 0.05M Tris-HCl, pH7.6 and counterstained with haematoxylin. […]

[2] = tested on: colorectal tumour sections; experiment: Immunoperoxidase staining of frozen colorectal tumour sections (screening); type: binding; parameters: key: −: negative; +: minimal; 2+: strong; 3+: very strong
Protocol: as §1

normal colon = experiment: Immunohistochemistry of normal colon (screening); type: binding; parameters: key: −: negative; +: minimal; 2+: strong; 3+: very strong
[3] = tested on: frozen tumour tissue sections; experiment: Immunohistochemistry staining of frozen tumour tissue sections; type: binding, Human
Protocol: • Immunohistochemistry staining of normal and tumour tissues. Human tissues were obtained from an Inveresk approved supplier. Each tissue used was snap frozen in liquid nitrogen and stored at approximately −70° C. (±10° C.). Cryostat sections were cut and placed onto super frost plus slides. All tissue samples were treated with an antigen marker appropriate for each tissue in order to confirm the preservation of antigens in that tissue. The markers used were keratin for epithelial bearing tissues, CD45 for all lymphoid tissues, and desmin for all cardiac and skeletal muscle. Each tissue was examined from three unrelated donors. The method of staining employed was an indirect, 2 or 3-stage method, using secondary and tertiary antibodies together with an avidin-biotin-peroxidase complex. Endogenous peroxidase activity was blocked using hydrogen peroxide. Endogenous biotin was blocked by treating all tissue sections with a sequence of avidin-biotin. When a tertiary antibody was used, all tissue sections were treated with normal swine serum, which inhibits the binding of tertiary antibodies to the tissues. Validation of the immunohistochemical staining method was determined by staining on positive control tissues, the absence on negative controls and the effect of fixation on staining of control tissues. SC104 was tested against 6 donors of colon tumour and one of heart at concentrations of […]. Tissues were fixed in either acetone or neutral buffered formalin. Two samples of colon tumour stained well enough for use as a positive control and there was no staining in heart. […] The lowest concentration of SC104 giving the maximum staining intensity was 1 μg/ml and this concentration was used for subsequent work. Results

[4] = tested on: freshly disaggregated colorectal tumour cells; experiment: Primary tumour binding, flow cytometry
Protocol: • Primary tumour binding. Tumour specimens were obtained at the time of colorectal cancer resection. Specimens were finely minced and disaggregated with 0.05% collagenase (Type IV, Boehringer Mannheim, Lewes, UK) for 20 min at 37° C. The tumour cell suspension was removed and washed 3 times in Hanks balanced salt solution (Gibco BRL, Paisley, UK). Fresh collagenase was added to the remaining tissue and it was reincubated for a further 20 min. This procedure was repeated twice before combining cells from all dissociations and resuspending them in Dulbecco's medium containing 20% fetal calf serum (Gibco). Cells were incubated for 1 hr at 4° C. with SC104 mab (1 μg). […] Normal mouse immunoglobulin was used as a negative control and this fluorescence was subtracted from the fluorescence obtained with SC104. […] Results are expressed as mean linear fluorescence (MLF). […] The percentage of epithelial cells is measured by staining of cytokeratin mab Cam 5.2. was only 22±13% (range 10-60). However, following forward angle light scatter gating to selectively analyse cells in the malignant cell size range 79±4% (range 69-86) of the cells analysed were epithelial. […] The percentage of leukocytes as measured by staining with the anti-CD45 mab F-10-89 in the total nucleate population was 74±16 (range 40-90). […]

[5] = ELISA on tumour glycolipid extract; type: binding; conditions: FIG. 4
Protocol: • Binding to purified antigen preparations. […] Binding of SC104 mab was assayed by ELISA as described above.

[6] = Blood group antigen ELISA, H type I; type: binding
Protocol: The Lewis ^y hapten and the type I and type II H blood group antigen (Sigma, Poole, Dorset) were dried microtitre plates by overnight incubation at 37° C. Binding of SC104 mab was assayed by ELISA as described above.

C170 cells [7] = experiment: Inhibition of SC104 cell death by z-FMK-vad caspase inhibitor; type: cell-based; conditions: 3 μg/ml SC104 with 3 μM z-FMK-vad inhibitor, overnight; annexin V FITC/PI
Protocol: SC104 inhibition of cell death using the z-FMK-vad caspase inhibitor. 2×10^5 C170 cells were subjected to 3 μg/ml of SC104 and half were also incubated with 3 μM z-FMK-vad inhibitor (Promega, catalogue number G7232) and incubated overnight. The following day cell viability was assayed using annexin V FITC and propidium iodide.

colorectal tumours = experiment: Binding to colorectal tumours (summary statement)

B1: SC104: mouse IgG1 monoclonal antibody specific for a sialyltetraosyl carbohydrate, raised by immunisation with colorectal cancer cell lines (antibody, V domains shown)
VH: DVQLQESGPDLVKPSQSLSLTCTVTGYSITSGYSWHWVRQFPGNKMEWMGHIHFSGRPTYNPSLSSRISITRDTSKNQFLLQLKFVTTEDTSTYFCARKGKGSDDGLNYWGQGISVTVSS
VL: ENVLTQSPVIMSASPGEKVTMTCSASSSLSYIHWYQQKSRTSPKLWIYDTSNLASGVPGRFSGSGSGNSYSLTISSMEAEDVATYYCFQGSEYPLTFGGGTKLEMT
C170 ELISA (OD 405 nm) (C170 cells [1]): 0.301 OD 405 nm | Immunohistochemistry Colorectal Tumour [2]: 3+ | Immunohistochemistry Normal colon (normal colon): + | Immunoreactivity with frozen tissue sections (binding) ([3]; Tumours: Breast): 3/6 | Immunoreactivity with frozen tissue sections (binding) ([3]; Tumours: Colon): 8/8 | Immunoreactivity with frozen tissue sections (binding) ([3]; Tumours: Endometrial): 2/2 | Immunoreactivity with frozen tissue sections (binding) ([3]; Tumours: Lung): 0 | Immunoreactivity with frozen tissue sections (binding) ([3]; Tumours: Oesophageal): 4/4 | Immunoreactivity with frozen tissue sections (binding) ([3]; Tumours: Ovary): 0 | Immunoreactivity with frozen tissue sections (binding) ([3]; Tumours: Parotid): 2/2 | Immunoreactivity with frozen tissue sections (binding) ([3]; Tumours: Prostate): 0 | Immunoreactivity with frozen tissue sections (binding) ([3]; Tumours: Renal): 0 | Immunoreactivity with frozen tissue sections (binding) ([3]; Tumours: Stomach): 4/4 | Immunoreactivity with frozen tissue sections (binding) ([3]; Tumours: Testes): 0/1 | lowest concentration giving the maximum staining intensity ([3]; colon tumour positive control, neutral buffered formalin): 1 µg/mL | freshly disaggregated colorectal tumour cells bound strongly ([4]; FIG. 3): > 80% | mean antigen density ([4]; freshly disaggregated colorectal tumour cells): 4×10^5 antigens per cell | binding to methanol/chloroform tumour glycolipid extract by ELISA [5]: A similar result was obtained | Binding to blood group antigens by ELISA: H blood group Type I [6]: 0.087 OD 405 nm | increase in viable cells in the presence of the inhibitor (C170 cells [7]): 23% | colorectal tumours bound (colorectal tumours): 71%
